This passage reports stoichiometry N results from publication PMC8484680.

The target of test [1] is PsFucS1, fucoidan active sulfatase (subfamily S1_13) from Pseudoalteromonas sp. MB47 (Pseudoalteromonas sp. MB47). The test can be described thus: SEC; analytical SEC, HiLoad 16/600 Superdex 200 pg, room temperature, 200 µl of His-tagged PsFucS1 at 6 mg/ml, 50 mM Tris-HCl pH 8.0, 100 mM NaCl; calibrated with standards of 13.7-440 kDa. A general note: SEC sorts molecules by how far they enter the pores of the column.

For test [2] the target is unchanged. The test can be described thus: crystal structure; X-ray, 2.50 Å, space group P212121, six molecules in the asymmetric unit; crystals grown at 20 °C in 0.1 M sodium acetate pH 4.6, 0.1 M NaCl, 20% PEG 3350; interfaces analysed with PISA.

Usually stoichiometry N stands for a count of units in the complex or per binding partner. In the case of “PsFucS1, fucoidan active sulfatase (subfamily S1_13) from Pseudoalteromonas sp. MB47 (enzyme)”, the stoichiometry N in test [1] and in test [2] was 6 throughout.
